Here are results for 3 compounds from ChEMBL document CHEMBL3392998.

For series [1], the target named is Protease (Human immunodeficiency virus 1) (UniProt Q9YQ12). The conditions noted are these: 1 to 180 uM.
For series [2], the system named is Human immunodeficiency virus type 1 protease (Human immunodeficiency virus 1), Q72874 [L10I,L63P,A71V,G73S,I84V,L90M]. The conditions noted are these: 1 to 180 uM.
Series [3] has as its system O=C1c2cccc([N+](=O)[O-])c2C(=O)N1c1ccc2[nH]c(=S)sc2c1. The conditions noted are these: Human immunodeficiency virus 1; 100 uM.
The test system is the same in series [4]. The settings on record: Human immunodeficiency virus 1; 100 uM. The source holds these as a separate data set.
Series [5] shares this test system. The conditions noted are these: Human immunodeficiency virus 1; 150 uM.
Series [6] shares this test system. The conditions noted are these: Human immunodeficiency virus 1; 150 uM. The source holds these as a separate data set.
The test system is the same in series [7]. The settings on record: Human immunodeficiency virus 1; 150 uM. This is another data set of the same source.
The test system is the same in series [8]. The conditions noted are these: Human immunodeficiency virus 1; 100 uM. This is another data set of the same source.
The test system is the same in series [9]. The conditions noted are these: Human immunodeficiency virus 1; 150 uM. The source holds these as a separate data set.
For series [10] the test system is unchanged. The settings on record: Human immunodeficiency virus 1; 100 uM. This is another data set of the same source.

The source made the active and inactive calls. The calls are words filed in the database; no cut-off is given here.

With `O=C1c2cccc([N+](=O)[O-])c2C(=O)N1c1ccc2[nH]c(=S)sc2c1`, the inhibition entry in series [1] and in series [2] was “inactive” each time.
For “Protease (Human immunodeficiency virus 1), Q9YQ12”, the Vmax in series [3] was 35 nM/s; in series [5], 34 nM/s. For the same compound, the Km came to 144 µM in series [4] and 184 µM in series [6].
For “Human immunodeficiency virus type 1 protease (Human immunodeficiency virus 1), Q72874 L10I,L63P,A71V,G73S,I84V,L90M”, the Vmax in series [7] and in series [10] was 30 nM/s each time. For the same compound, the Km was 246 µM in series [8] and 359 µM in series [9].

In general, Vmax refers to the rate approached at saturating substrate. The Km is the substrate concentration at which the rate is half of its maximum.
